From patent US20220242939A1
Non-standard residues stand in square brackets, D forms with d. No end group written: not given here. Ahx = NCCCCCC(=O)O

Assays:
[1] = molecular target: 4E6, recombinant IgG2c antibody; assay: inhibition ELISA 2nd protocol: antigen in solution varied, antibody 4E6, plate coated with G200-BSA peptide
[2] = molecular target: 4E6, recombinant IgG2c antibody; assay: inhibition ELISA: antigen in solution varied, antibody 4E6 at 0.05 µg/ml, plate coated with G200-BSA peptide

Chain of 4E6, recombinant IgG2c antibody (VH, as listed by the source limits assumed, chain 1 of 2): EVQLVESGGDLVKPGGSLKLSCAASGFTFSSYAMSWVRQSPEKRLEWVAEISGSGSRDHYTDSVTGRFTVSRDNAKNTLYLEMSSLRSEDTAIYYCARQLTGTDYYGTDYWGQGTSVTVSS
Chain of 4E6, recombinant IgG2c antibody (VL, as listed by the source limits assumed, chain 2 of 2): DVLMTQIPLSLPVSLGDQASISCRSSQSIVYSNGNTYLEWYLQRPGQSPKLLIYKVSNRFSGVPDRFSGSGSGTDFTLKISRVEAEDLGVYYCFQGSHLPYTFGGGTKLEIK

B1: G200 N-terminal neo-epitope peptide GQPLQE-Acp-C (SEQ ID NO:50) conjugated to BSA (peptide)
peptide: GQPLQE[Ahx]C
modifications: not fully specified (residue 8); printed as GQPLQE-Acp-C; also: C-terminal Cys conjugated to BSA carrier
An IC50 [1] of 0.0115 µg/mL and an IC50 [2] of 2.9 ng/mL were found for B1 in this work.
